Measurements published in patent US7238786B2, “Monoclonal antibody cPAM4” (Immunomedics, Inc., priority 2002, dated 2007).

System: PAM4 antigen
Test: Competition with ^131I-mPAM4 binding to the antigen (FIG. 3)
Details: competing with ^131I-mPAM4 binding to the antigen
Text: A chimeric antibody is a recombinant protein that contains the variable domains including the complementarity determining regions (CDRs) of an antibody derived from one species while the constant domains of the antibody molecule is derived from those of a human antibody.

B1: cPAM4: chimeric PAM4: murine PAM4 variable domains with human light and heavy chain constant regions (antibody, V domains shown)
VL: DIQLTQSPAIMSASPGEKVTMTCSASSSVSSSYLYWYQQKPGSSPKLWIYSTSNLASGVPARFSGSGSGTSYSLTISSMEAEDAASYFCHQWNRYPYTFGGGTKLEIKR
VH: QVQLQESGPELVKPGASVKMSCKASGYTFPSYVLHWVKQKPGQGLEWIGYINPYNDGTQYNEKFKGKATLTSDKSSSTAYMELSRLTSEDSAVYYCARGFGGSYGFAYWGQGTLITVSA
B1 was tested. Which “binding activity compared to murine PAM4” value did it give?
Its value is “comparable binding activity”.
